Columns and labels:
[1] = tested on: recombinant 9-lipoxygenase (Mi9LOX); experiment: Recombinant Mi9LOX enzyme kinetics with LA and ALA as substrates (conjugated diene formation at 234 nm); assay type: biochemical, Mangifera indica; details: substrate of Mi9LOX
Procedure: The recombinant 9-lipoxygenase (Mi9LOX) activity assays was initially carried out in 250 μl final volume of 100 mM phosphate citrate buffer pH 7.0 at 30° C. containing 200 μM substrate (LA/ALA) and 0.005% Tween20. The activity was measured by formation of the conjugated diene at absorbance of 234 nm, applying an extinction coefficient 25000 M^-1 cm^-1 for both the substrates. […] at 0th min for each reaction is considered as blank and subtracted from […] for given time (t). Similar activity assays were also performed with protein expressed from empty vector for the confirmation of Mi9LOX activity. Optimum pH was determined by calculating activity at varied range of pH in phosphate citrate buffer at 30° C., whereas temperature optima was determined by calculating recombinant 9-lipoxygenase activity in phosphate citrate buffer pH 7 at various temperatures. The purified recombinant 9-lipoxygenase having amino acid sequence as set forth in SEQ ID NO: 2 used linoleic acid (LA) and alpha linolenic acid (ALA) as substrates. Activity of the recombinant 9-lipoxygenase protein was measured spectrophotometrically at 234 nm by the formation of conjugated dienes. For unit calculations, molar extinction coefficient for hydroperoxy linoleate and linolenate was considered 25000 cm^-1M^-1. […]

[2] = tested on: ethylene treated mango fruits; experiment: In vivo transient over expression of 9-lipoxygenase by Agrobacterium mediated infiltration; set-up: species or system Alphonso mango (Mangifera indica); details: for δ-decalactone content compared to control tissue / δ-valerolactone content compared to control tissue: transient over expression, 2 days post infiltration, GC-FID
Procedure: The full length polynucleotide sequence (SEQ ID NO: 1) encoding 9-lipoxygenase (SEQ ID NO: 2) was cloned into the pBI121 plant expression vector between CaMV 35S promoter and GusA gene. Terminal primers were designed (SEQ ID NO: 10 and SEQ ID NO: 11) to clone genes at BamHI restriction site. The resulted correct oriented construct pBI121+Mi9LOX and pBI121 empty vector were transformed in the Agrobacterium GV3101 strain for transient expression studies. Separate Agrobacterium cultures (5 mL) were initiated from individual colonies in YEB medium having appropriate antibiotics and incubated overnight at 28° C. This culture was transferred to 50 mL induction medium (0.5% beef extract, 0.1% yeast extract, 0.5% peptone, 0.5% sucrose, 2 mM MgSO4, […], 10 mM MES, pH 5.6) having appropriate antibiotics, and again grown overnight. On the succeeding day, cultures were recovered by centrifugation, resuspended in infiltration medium (10 mM MgCl2, 10 mM MES, […], pH 5.6) till optical density reaches 1.0. This suspension was again incubated at 28° C. with gentle agitation for 2 hrs. Over expression studies for 9LOX was carried out by Agrobacterium mediated infiltration in ethylene treated mango fruits at 3DAH stage by using hypodermic syringe (FIG. 4a). Equal volumes of pBI121+Mi9LOX and pBI121 construct containing cultures were used for infiltration in two different halves of same mango fruit separated by fruit stone. Set of five distinct mango fruits were used for the overexpression study as data set. Infiltrated fruits were kept at 25° C. for 2 days in 12 hr dark and 12 hr light conditions, after 2 days; part from each fruit halves was checked by the Gus staining (Kapila et al. 1997; Spolaore et al. 2001) to confirm expression of Mi9LOX under 35S promoter along with GusA, remaining part of fruit pulp stored in −80° C. until used for the lactone analysis by gas chromatography.
Thus, ethylene treated mangoes were ideal for Agrobacterium infiltration studies as Agrobacterium infiltrated fruits cannot be incubated for more than 2 days due to the risk of bacterial and fungal infection owing to fruit injury during infiltration. Two days post infiltration, a part of fruit was checked by Gus staining (FIG. 4b) to confirm expression of GusA along with the Mi9LOX gene. The remaining tissue was used for the lactone content analysis. The lactones were analysed from control and test region of fruits from Mi9LOX sets. Total 8 lactones viz. γ-butyrolactone, δ-valerolactone, γ-hexalactone, δ-hexalactone, γ-octalactone, δ-octalactone, γ-decalactone and δ-decalactone were detected from all the tissues in GC-MS analysis.

[3] = tested on: recombinant 9-lipoxygenase (Mi9LOX); experiment: pH and temperature activity profile of recombinant Mi9LOX; assay type: biochemical, Mangifera indica; details: for Optimum temperature: phosphate citrate buffer pH 7
Procedure: The recombinant 9-lipoxygenase (Mi9LOX) activity assays was initially carried out in 250 μl final volume of 100 mM phosphate citrate buffer pH 7.0 at 30° C. containing 200 μM substrate (LA/ALA) and 0.005% Tween20. The activity was measured by formation of the conjugated diene at absorbance of 234 nm, applying an extinction coefficient 25000 M^-1 cm^-1 for both the substrates. […] at 0th min for each reaction is considered as blank and subtracted from […] for given time (t). Similar activity assays were also performed with protein expressed from empty vector for the confirmation of Mi9LOX activity. Optimum pH was determined by calculating activity at varied range of pH in phosphate citrate buffer at 30° C., whereas temperature optima was determined by calculating recombinant 9-lipoxygenase activity in phosphate citrate buffer pH 7 at various temperatures. The purified recombinant 9-lipoxygenase having amino acid sequence as set forth in SEQ ID NO: 2 used linoleic acid (LA) and alpha linolenic acid (ALA) as substrates. Activity of the recombinant 9-lipoxygenase protein was measured spectrophotometrically at 234 nm by the formation of conjugated dienes. For unit calculations, molar extinction coefficient for hydroperoxy linoleate and linolenate was considered 25000 cm^-1M^-1. 9HpODE and 9HpOTrE products formed by the activity of Mi9LOX on LA and ALA respectively were confirmed by UPLC-HRMS. […] (FIG. 10(a)).

[4] = HRMS intermediate metabolite analysis

Molecule: CCCCC/C=C\C/C=C\CCCCCCCC(=O)O [LA, linoleic acid]
- Km [1]: 354 µM
- Vmax [1]: LA- 611.11 ± 55.55 μM min^−1mg^−1

Molecule: SEQ ID NO: 1: 2526 bp cDNA polynucleotide encoding 9-lipoxygenase, cloned in pBI121 and agroinfiltrated for transient over expression
- δ-decalactone content compared to control tissue [2]: 1.48 fold
- δ-valerolactone content compared to control tissue [2]: 1.08 fold

B1: Mi9LOX: Recombinant Mangifera indica 9-lipoxygenase from Alphonso mango, 841 aa, SEQ ID NO: 2 (protein)
chain: MGTVVLMKKNFLDFNDLSASVIDRVDELVGKRVSLQLVSAFNSDPTASNGLQGKVGEPAHLEEWITTITPLVAEESTFKVTFDWDEQIGVPGAFIIKNNHHSGFYLKSLTLEDVPNQGRIHFVCNSWVYPAKRYKKDRVFFTNKTYLPGEMPAPLQYYREQELLNLRGDGTGELQEWDRVYDYAYYNDLGDPDNGKPRPVLGGSTEYPYPRRGRTGRPPAKTDPETESRLPLLTSLNIYVPRDERFGHIKMSDFLGYALKSISQFIEPALESVFDSTPNEFDNFAQIYKLYDEGIQLPNDHFLDDIRNNIPLELLKEIFPTNEDNLFEFPTPQVIQGDRSAWRTDEEFAREMLAGPNPVIIRRVEEFPPRSKLDPELYGDQDSKITKQHIESYLDGLTVEQAIEKNELFILDHHDSLMTYLRRINTTSTKTYASRTILFLKEDGTLKPLAIELSRPHPDGDQYGAISNVYTPSEDEVEGSIWQLAKAYVAVNDSGVHQLISHWLKTHAAIEPFVIATNRQLSVLHPIYKLLQPHFRDTMNINAFARQIVINAGGILETTVFPAKYAMEMSSAIYKDWTFPDQALPEDLKNRGMAVEDPNSPHGLRLLIADYPYAVDGLEIWFAIKNWVKDYCYFYYKSDEMMQKDSGLQSWWKELREEGHGDKKDEPWWPKMQNREELIEACTIIIWIASALHAAVNFGQYPYAGFLPNRPTMSRRFMPEKGTPDYDELESNFDKVFLKTITAQRQTLLGIALIETLSRHSSDEMYLGQRDTPEWTSDKIPLQAFEDFGKKLGDIEVRIITRNHDNMLKNRVGPVNMPYTLLYPTSEGGLTGKGIPNSVSI
modifications: Protein sequence of 7- Dehydrocholestrol reductase (7-DHCR)
- reduction in the activity ([3]; at 35° C.): 75%
- reduced activity ([3]; at 50° C.): 69%
- reduction in the activity ([3]; at pH 5 and 9): 40%
- Optimum pH ([3]; phosphate citrate buffer at 30° C.): 6.5
- Optimum temperature [3]: 37 °C
- Optimum temperature ([3]; listed as recombinant 9-lipoxygenase): 35 °C
- 9HpODE in control and test tissues [2, 4]: not detected
- increase in 9HpOTrE upon Mi9LOX over expression [2, 4]: 1.9 folds
- δ-decalactone content compared to control tissue [2]: 1.48 fold
- δ-valerolactone content compared to control tissue [2]: 1.08 fold
- increase of Mi9LOX transcripts in test tissues as compared to the control tissues ([2]; upon Agrobacterium infiltration): 1.73
